Source: paper PMC12709241
Where two headings read alike, the source gives them in different places.

Assays:
[1] = biological target: microtubules (assembled from porcine brain tubulin, rhodamine-labeled, paclitaxel-stabilised) (porcine) (UniProt P02550); test: optical trapping
[2] = biological target: microtubules (assembled from porcine brain tubulin, rhodamine-labeled, paclitaxel-stabilised) (porcine) (UniProt P02550); test: optical trapping; remark: listed apart in the source

mean detachment force (single molecule) [1]: 6.3 pN | mean detachment force (single molecule) [2]: 6.4 pN
Substance: KinΔC (mouse KIF5B 1-888 heavy chain with bound full-length KLC2) (from UniProt Q61768 1-888; O88448 1-599) (complex)
